{"source": "patent US20220168434A1", "about": "“APPLICATION OF TRANSTHYRETIN IN ENTERING EYE AND PREPARING DROP” (YIZHOU (SHANGHAI) BIOLOGICAL MEDICINE CO, LTD., priority 2019, published 2022)", "key": {"[1]": {"assay": "Protein content in vitreous body during two weeks of eye dropping (ELISA, anti-His tag antibody)", "type": "in vivo, SD rats (Rattus norregicus)", "settings": "SD rats; protein not fused with TTR", "experimental": "(§1) The purified TTR protein (at a concentration of 4 μmol/L) prepared in Example 1 after removal of endotoxin and bacteria was subject to treating healthy SD rats (Rattus norregicus) (6 weeks old) and New Zealand big-eared rabbits (Oryctolagus cuniculus) (2 months old, about 2.5 kg) by means of eye dropping, the left eye was the sample eye dropped with the protein, and the right eye was the blank control eye dropped with saline. The protein was administered 1-3 times per day at a dosage of 0.4-0.8 nmol. Two weeks later, the eyeball was removed and separated to obtain the vitreous body sample. It was preliminarily verified by western-blot method (FIG. 7A) that TTR can enter the vitreous cavity from the ocular surface.\n(§2) The purified TTR-GFP protein (at a concentration of 4 μmol/L) prepared in Example 2 after removal of endotoxin and bacteria was subject to treating healthy SD rats (Rattus norregicus) (6 weeks old) and New Zealand big-eared rabbits (Oryctolagus cuniculus) (2 months old, about 2.5 kg) by means of eye dropping, the left eye was the sample eye dropped with the protein, and the right eye was the blank control eye dropped with saline. The protein was administered 1-3 times per day at a dosage of 0.4-0.8 nmol. […] The content of TTR-GFP in the vitreous body sample was determined by ELISA with the anti-His tag antibody as the primary antibody (Table 10 and 11). […]"}, "[2]": {"assay": "Protein content in vitreous body during two weeks of eye dropping (ELISA, anti-His tag antibody)", "type": "in vivo, New Zealand big-eared rabbits (Oryctolagus cuniculus)", "settings": "New Zealand big-ear rabbits; protein not fused with TTR", "experimental": "as §1, §2"}}}
{"substance": "Lysozyme: Lysozyme protein (Genbank Accession No.: AAL69327.1) not fused with TTR", "values": [{"measurement": "entering the vitreous body after eye dropping (in words)", "setting": "[1]", "value": "did not enter"}, {"measurement": "entering the vitreous body after eye dropping (in words)", "setting": "[2]", "value": "did not enter"}]}
